Experimental data as given in patent US20200392236A1 (JUNO THERAPEUTICS, published 2020).

T1: human BCMA amino acid residues 1-54 (linear and conformational CLIPS peptide libraries) (human, UniProt Q02223 1-54)
T1 sequence: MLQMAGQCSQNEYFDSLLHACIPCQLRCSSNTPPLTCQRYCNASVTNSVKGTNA

T2: BCMA peptide 30SNTPPLTCQR39 (human)
T2 construct: Peptide of the CLIPS library; recognised in a linear form
T2 peptide: SNTPPLTCQR

T3: human BCMA (B-cell maturation antigen) on cells (human, UniProt Q02223 1-184)
T3 construct: whole, on cells; also called hBCMA; hBCMA/HEK293 cell line
T3 sequence (looked up): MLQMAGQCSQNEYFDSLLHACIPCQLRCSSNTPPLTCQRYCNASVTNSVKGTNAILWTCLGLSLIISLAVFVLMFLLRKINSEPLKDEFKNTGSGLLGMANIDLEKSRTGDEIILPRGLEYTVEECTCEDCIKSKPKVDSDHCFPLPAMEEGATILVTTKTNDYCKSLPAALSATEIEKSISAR

B1: BCMA-55-scFv-mFc (Fc fusion)
chain: QSALTQPASVSASPGQSIAISCTGTSSDVGWYQQHPGKAPKLMIYEDSKRPSGVSNRFSGSKSGNTASLTISGLQAEDEADYYCSSNTRSSTLVFGGGTKLTVLGSRGGGGSGGGGSGGGGSLEMAEVQLVQSGAEMKKPGASLKLSCKASGYTFIDYYVYWMRQAPGQGLESMGWINPNSGGTNYAQKFQGRVTMTRDTSISTAYMELSRLRSDDTAMYYCARSQRDGYMDYWGQGTLVTVSS
notes: scFv fused with mouse Fc; The order scFv then Fc follows the label; also called BCMA-55 anti-BCMA scFv; not shown: mouse Fc (mFc)
B2: BCMA-52-scFv-mFc (Fc fusion)
chain: SYELTQPPSASGTPGQRVTMSCSGTSSNIGSHSVNWYQQLPGTAPKLLIYTNNQRPSGVPDRFSGSKSGTSASLAISGLQSEDEADYYCAAWDGSLNGLVFGGGTKLTVLGSRGGGGSGGGGSGGGGSLEMAEVQLVQSGAEVKKPGESLKISCKGSGYSFTSYWIGWVRQMPGKGLEWMGIIYPGDSDTRYSPSFQGHVTISADKSISTAYLQWSSLKASDTAMYYCARYSGSFDNWGQGTLVTVSS
notes: scFv fused with mouse Fc; The order scFv then Fc follows the label; also called BCMA-52 anti-BCMA scFv; not shown: mouse Fc (mFc)
B3: BCMA-23 anti-BCMA scFv (scFv)
scFv: EVQLVESGGGLVKPGGSLRLSCAASGFTFSDYYMSWIRQAPGKGLEWVSYISSSGSTIYYADSVKGRFTISRDNAKNSLYLQMNSLRAEDTAVYYCAKVDGDYTEDYWGQGTLVTVSSGGGGSGGGGSGGGGSQSALTQPASVSGSPGQSITISCTGSSSDVGKYNLVSWYQQPPGKAPKLIIYDVNKRPSGVSNRFSGSKSGNTATLTISGLQGDDEADYYCSSYGGSRSYVFGTGTKVTVL
notes: BCMA-22 with the first residue of CDR-L3 (cysteine) replaced by serine
B4: BCMA-1 anti-BCMA scFv (scFv)
scFv: QVQLVQSGGGLVQPGRSLRLSCTASGFTFGDYAMSWFRQAPGKGLEWVGFIRSKAYGGTTEYAASVKGRFTISRDDSKSIAYLQMNSLKTEDTAVYYCAAWSAPTDYWGQGTLVTVSSGGGGSGGGGSGGGGSDIVMTQSPDSLSVSPGERATISCKSSQSVLSTSNNKNYLAWYQQKPGQPPRLLLYWASTREAGVPDRFSGSGSGTDFTLTISSLQAEDVAVYYCQQYFSSPYTFGHGTKLEIK
notes: VH-(G4S)3-VL scFv
B5: BCMA-5 anti-BCMA scFv (scFv)
scFv: QVQLVQSGGGLVQPGRSLRLSCTASGFTFGDYAMSWFRQAPGKGLEWVGFIRSKAYGGTTEYAASVKGRFTISRDDSKSIAYLQMNSLKTEDTAVYYCAAWSAPTDYWGQGTLVTVSSGGGGSGGGGSGGGGSDIVMTQSPDSLAVSLGERATINCKSSQSVLYSSNNKNYLAWYQQKPGQPPKLLIYWASTRESGVPDRFSGSGSGTDFTLTISSLQAEDVAVYYCQQYYSTPWTFGQGTKVDIK
notes: VH-(G4S)3-VL scFv
B6: BCMA-16 anti-BCMA scFv (scFv)
scFv: EVQLVQSGPEVKKPGTSVKVSCKASGFTFTSSAMQWVRQARGQRLEWIGWIVVGSGNTNYAQKFQERVTITRDMSTSTAYMELSSLRSEDTAVYYCAAAPYYDILTGYYLWGQGTLVTVSSGGGGSGGGGSGGGGSQSALTQPPSASGTPGQRVTISCSGSGSNIGSNDVSWYQQIPGTAPKLLIYWNDQRPSGVPDRFSGSKSGTSASLAISGLQSEDEADYYCASWDDSLSGWVFGGGTKLTVL
notes: VH-(G4S)3-VL scFv
B7: BCMA-25 anti-BCMA scFv (scFv)
scFv: EVQLVQSGGGLVQPGRSLRLSCTASGFTFGDYAMSWFRQAPGKGLEWVGFIRSKAYGGTTEYAASVKGRFTISRDDSKSIAYLQMNSLKTEDTAVYYCAAWSAPTDYWGQGTLVTVSSGGGGSGGGGSGGGGSDIQMTQSPAFLSASVGDRVTVTCRASQGISNYLAWYQQKPGNAPRLLIYSASTLQSGVPSRFRGTGYGTEFSLTIDSLQPEDFATYYCQQSYTSRQTFGPGTRLDIK
notes: VH-(G4S)3-VL scFv
B8: BCMA-26 anti-BCMA scFv (scFv)
scFv: EVQLVESGGGLVKPGGSLRLSCAASGFTFSDYYMSWIRQAPGKGLEWVSYISSSGSTIYYADSVKGRFTISRDNAKNSLYLQMNSLRAEDTAVYYCAKVDGPPSFDIWGQGTMVTVSSGGGGSGGGGSGGGGSSYVLTQPPSVSVAPGQTARITCGANNIGSKSVHWYQQKPGQAPMLVVYDDDDRPSGIPERFSGSNSGNTATLTISGVEAGDEADYFCHLWDRSRDHYVFGTGTKLTVL
notes: VH-(G4S)3-VL scFv

Columns and labels:
[1] = target: T1, human BCMA amino acid residues 1-54 …; assay: CLIPS peptide array ELISA
Protocol: (§1) Epitopes recognized, e.g., specifically bound to, by exemplary anti-BCMA scFv clones (BCMA-1, BCMA-5, BCMA-9, BCMA-23, BCMA-25, BCMA-26, BCMA-52 and BCMA-55 anti-BCMA scFvs), were assessed using full discontinuous epitope mapping by Chemical Linkage of Peptides onto Scaffolds (CLIPS; Pepscan Presto BV, Lelystad, The Netherlands; see, e.g., Timmerman et al., (2007) J. Mol. Recognit. 20: 283-329). Mapping was carried out using anti-BCMA scFv clones, such as those fused with mouse Fc (scFv-mFc).
(§2) Linear and conformational peptide libraries of amino acid residues 1-54 of human BCMA (set forth as amino acid residues 1-54 of SEQ ID NO:367) were generated based on a combinatorial matrix design. Linear peptides and structural mimetics including single loop, α-helix, β-turn, combinatorial and linear disulfide bridge mimics, and discontinuous epitope mimics were used, along with positive and negative control peptides, on an amino-functionalized solid support.
(§3) Affinities for binding to the peptides in the epitope library were determined using ELISA. The peptide arrays were incubated with a solution containing the scFv overnight at 4° C. Affinity information was used in iterative screens to define the sequence and conformation of epitopes. Heat maps of affinity information for two or more loops were generated.

[2] = target: T2, BCMA peptide 30SNTPPLTCQR39; assay: CLIPS peptide array ELISA
Protocol: as §1, §2, §3

[3] = target: T3, human BCMA (B-cell maturation antigen) …; assay: flow cytometry, hBCMA-overexpressing HEK293 compared with OPM2 and RPMI-8226 cells
Protocol: Binding of exemplary scFv clones to hBMCA-overexpressing HEK293 cells as compared to OPM2 and RPMI-8226 cell lines that express moderate levels of endogenous BCMA was assessed.

[4] = target: T3, human BCMA (B-cell maturation antigen) …; assay: flow cytometry on hBCMA-expressing HEK293 cells

| Binder | binding result [1] | binding result [2] | further results |
| --- | --- | --- | --- |
| B1 | binds |  |  |
| B2 | binds |  |  |
| B3 |  | binds |  |
| B4 |  | binds | binding result [3]: binds |
| B5 |  | binds | binding result [3]: binds |
| B6 |  |  | binding result [4]: no binding |
| B7 |  | binds |  |
| B8 | binds |  |  |
